Data on one substance can be found in article PMC4775073.

The experiment addresses FLAG-CTRwt (full-length) (human) (UniProt P30988). The experiment is described as follows: proximity ligation; in situ PLA (Duolink) on fixed PC cells (PC-3CTRwt, PC-3CTR∆ESS, LNCaP) with anti-ZO-1 and anti-CTR sera; with/without 50 nM CT for 30 seconds; dots per cell counted.
Chain of UniProt P30988 (P30988 25-474): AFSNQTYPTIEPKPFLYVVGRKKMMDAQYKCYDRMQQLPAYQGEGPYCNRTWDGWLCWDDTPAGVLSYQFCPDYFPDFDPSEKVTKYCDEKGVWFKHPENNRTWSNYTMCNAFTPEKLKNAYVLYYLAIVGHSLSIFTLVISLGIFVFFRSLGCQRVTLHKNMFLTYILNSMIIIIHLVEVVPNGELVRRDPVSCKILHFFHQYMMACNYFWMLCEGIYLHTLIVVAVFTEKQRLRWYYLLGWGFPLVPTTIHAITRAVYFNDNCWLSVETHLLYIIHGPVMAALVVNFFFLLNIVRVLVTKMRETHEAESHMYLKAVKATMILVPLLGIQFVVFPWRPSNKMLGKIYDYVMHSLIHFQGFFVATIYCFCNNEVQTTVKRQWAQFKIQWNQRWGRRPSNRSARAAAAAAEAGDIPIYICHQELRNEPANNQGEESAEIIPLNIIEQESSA

“Zonula Occludens-1 (ZO-1), endogenous (from UniProt Q07157 1-1748) (natural protein)” displayed a fold increase of PLA interactions with 50 nM CT (30 seconds) over no exogenous CT of 80 fold.
